Laboratory results from article PMC11699742.

Biological target: α-Synuclein (UniProt P37840)

Sequence of DnaK from E. coli (P0A6Y8 whole entry): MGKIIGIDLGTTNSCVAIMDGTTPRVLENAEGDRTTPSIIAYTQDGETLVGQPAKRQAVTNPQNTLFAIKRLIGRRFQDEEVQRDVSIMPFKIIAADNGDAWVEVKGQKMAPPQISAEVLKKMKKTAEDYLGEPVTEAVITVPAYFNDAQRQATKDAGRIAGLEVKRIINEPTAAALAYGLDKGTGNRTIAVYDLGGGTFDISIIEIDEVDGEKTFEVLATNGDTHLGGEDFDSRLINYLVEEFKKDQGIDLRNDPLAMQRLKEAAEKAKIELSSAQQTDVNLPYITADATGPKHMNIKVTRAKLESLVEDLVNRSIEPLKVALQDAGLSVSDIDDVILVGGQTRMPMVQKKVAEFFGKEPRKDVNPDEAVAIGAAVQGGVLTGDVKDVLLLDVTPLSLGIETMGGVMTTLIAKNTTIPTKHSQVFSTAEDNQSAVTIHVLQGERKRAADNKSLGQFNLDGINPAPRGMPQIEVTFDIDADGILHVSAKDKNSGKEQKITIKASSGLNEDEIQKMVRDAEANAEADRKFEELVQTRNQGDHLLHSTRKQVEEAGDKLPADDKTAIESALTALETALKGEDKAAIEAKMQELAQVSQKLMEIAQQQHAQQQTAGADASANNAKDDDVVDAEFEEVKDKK

DnaK from E. coli (from UniProt P0A6Y8 1-638) (natural protein)
ThT fibrillation of 50 µM α-Syn monomer with 0.5 µM DnaK, with 2 mM ATP: relative decrease in vmax (1.32 h^-1 to 0.49 h^-1) and end signal (176,900–53,000): 64%
ThT fibrillation of 50 µM α-Syn monomer with 0.5 µM DnaK, without ATP: relative decrease in vmax (0.99 h^-1 to 0.55 h^-1) and end signal (43,000-24,600): 45%
